Results taken from PMC9687980 (Bioengineering, 2022).

Tests used:
[1] = target: T1, spike RBD of SARS-CoV-2 Omicron expressed in a mammalian system (SARS-CoV-2 Omicron, taken as BA.1, strain, N-linked glycans appended on N331 and N343); assay: ELISA; 4 ug of recombinant RBD immobilised on a high-binding plate; blocked with 4% skim milk; serial-diluted antibody in PBST; detected with Protein A-HRP, 450 nm; conditions: both partners purified
T1 construct: also called Mammalian RBDomi; mammalian cell-expressing RBDomi

[2] = target: T2, MBP-fused spike receptor binding domain of SARS-CoV-2 Omicron BA.1 (MBP-RBDomi) (SARS-CoV-2 Omicron BA.1 (GenBank …, strain)); assay: as above; conditions: both partners purified
T2 construct: also called MBP-fused Omicron RBD; MBP-RBD_(omicron)

B1: CR3022, human IgG1 (antibody, V domains shown)
VH: QMQLVQSGTEVKKPGESLKISCKGSGYGFITYWIGWVRQMPGKGLEWMGIIYPGDSETRYSPSFQGQVTISADKSINTAYLQWSSLKASDTAIYYCAGGSGISTPMDVWGQGTTVTV
VL: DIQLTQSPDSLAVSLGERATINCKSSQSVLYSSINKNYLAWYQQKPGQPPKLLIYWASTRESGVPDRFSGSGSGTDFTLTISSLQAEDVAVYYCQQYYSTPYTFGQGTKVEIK
notes: IgG1
binding result [1]: binds | binding result [2]: binds
